# Experimental data published in WO2001094586A2 (dated 2001).
# T1: human gp39 (CD40 ligand), cell-surface (human, UniProt P29965 1-261)
# T1 construct: whole, on cells; also called CD154; mgp39
# T1 sequence (looked up): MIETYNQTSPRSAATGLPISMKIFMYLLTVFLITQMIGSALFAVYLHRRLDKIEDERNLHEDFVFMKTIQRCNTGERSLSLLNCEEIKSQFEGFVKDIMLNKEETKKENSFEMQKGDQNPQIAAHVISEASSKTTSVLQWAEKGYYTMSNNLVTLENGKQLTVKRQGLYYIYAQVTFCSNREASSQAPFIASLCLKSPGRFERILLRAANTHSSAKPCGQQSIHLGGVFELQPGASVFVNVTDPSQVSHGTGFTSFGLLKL
# Assays:
# [1] = target: T1, human gp39 (CD40 ligand), cell-surface; experiment: cell-based or functional assay
# [2] = target: soluble fusion protein of human gp39 (gp39-CD8) (human) (UniProt P29965); experiment: cell-based or functional assay
# [3] = target: T1, human gp39 (CD40 ligand), cell-surface; experiment: Scatchard analysis, 125I-labelled antibody on gp39-CHO cells
IL-2 production with immobilized anti-CD3 (10 ng/mL) [1],IL-2 production with TRAP-1 (30 ng/mL) and a 4:1 molar excess of soluble CD8-CD40L fusion protein [2],Kd [3],Molecule
> 4600 pg/mL,1500 pg/mL,,"TRAP-1, commercial murine anti-CD40L antibody"
,,5.6 nM,"humanized 24-31 antibody, version 1 (#1 VL with #1 VH) (antibody, V domains shown, also called IDEC131) VH: EVQLQESGPGLVKPSETLSLTCTVSGDSITNGFWIWIRKPPGNKLEYMGYISYSGSTYYNPSLKSRISISRDTSKNQFSLKLSSVTAADTGVYYCACRSYGRTPYYFDFWGQGTTLTVSS VL: DIVMTQSPSFLSASVGDRVTITCKASQNVITAVAWYQQKPGKSPKLLIYSASNRYTGVPDRFSGSGSGTDFTLTISSLQPEDFADYFCQQYNSYPYTFGGGTKLEIK"
,,8.51 nM,"murine antibody 24-31 (anti-human gp39 monoclonal antibody) (antibody, V domains shown, also called murine 24-31; anti-gp39 24-31 mAb) VH: EVQLQESGPSLVKPSQTLSLTCSVTGDSITNGFWIWIRKFPGNKLEYMGYISYSGSTYYNPSLKSRISITRDTSQNQFYLQLNSVTTEDTGTYYCACRSYGRTPYYFDFWGQGTTLTVSS VL: DIVMTQSQKFMSTSVGDRVSITCKASQNVITAVAWYQQKPGQSPKLLIYSASNRYTGVPDRFSGSGSGTDFTLTISNMQSEDLADYFCQQYNSYPYTFGGGTKLEIK"
,,14 nM,"humanized 24-31 antibody, version 2 (#2 VL with #1 VH) (antibody, V domains shown, Built in the N5KG1 vector (human kappa and gamma 1 constant regions); also called humanized 24-31 version 2; humanized Version 2) VH: EVQLQESGPGLVKPSETLSLTCTVSGDSITNGFWIWIRKPPGNKLEYMGYISYSGSTYYNPSLKSRISISRDTSKNQFSLKLSSVTAADTGVYYCACRSYGRTPYYFDFWGQGTTLTVSS VL: DIVMTQSPDSLAVSLGERATINCKASQNVITAVAWYQQKPGQSPKLLIYSASNRYTGVPDRFSGSGSGTDFTLTISSLQAEDVADYFCQQYNSYPYTFGGGTKLEIK"
